Results reported in patent US10450368 (DUKE UNIVERSITY, dated 2019).

Tests used:
[1] = target: T1, HIV-1 CH505 transmitted/founder gp120 Env (HIV-1); test: SPR, antibody captured on anti-human Ig Fc, gp120 injected
T1 construct: domain: gp120; also called CH505.TF gp120; CH505 TF gp120 Env

[2] = target: CH505 TF loop D mutant M8 Env (pseudovirus) (HIV-1); test: cell-based or functional assay
[3] = target: T1, HIV-1 CH505 transmitted/founder gp120 …; test: direct-binding ELISA (OD450), panel 'CH505.TF gp120'
[4] = target: T2, SSB (UniProt P05455 1-408); test: AtheNA, Ab 12.5 ug/ml
T2 sequence: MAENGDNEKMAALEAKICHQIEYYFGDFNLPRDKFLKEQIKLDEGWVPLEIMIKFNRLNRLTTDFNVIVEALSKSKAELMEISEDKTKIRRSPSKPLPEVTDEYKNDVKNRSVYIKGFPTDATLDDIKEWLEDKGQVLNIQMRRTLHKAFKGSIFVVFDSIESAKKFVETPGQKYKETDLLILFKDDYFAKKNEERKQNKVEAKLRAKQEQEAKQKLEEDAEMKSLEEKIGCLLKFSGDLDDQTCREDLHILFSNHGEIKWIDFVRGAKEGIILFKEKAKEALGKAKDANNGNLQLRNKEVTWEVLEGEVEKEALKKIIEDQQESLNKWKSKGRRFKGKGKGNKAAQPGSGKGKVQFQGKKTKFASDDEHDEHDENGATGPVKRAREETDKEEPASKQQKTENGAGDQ
Description: (§1) AtheNA Multi-Lyte ANA Plus Test System is one such assay. This is luminex-based assay, which is also used to screen patient sera.

[5] = target: T3, Scl-70 (UniProt P11387 1-765); test: AtheNA, Ab 12.5 ug/ml
T3 sequence: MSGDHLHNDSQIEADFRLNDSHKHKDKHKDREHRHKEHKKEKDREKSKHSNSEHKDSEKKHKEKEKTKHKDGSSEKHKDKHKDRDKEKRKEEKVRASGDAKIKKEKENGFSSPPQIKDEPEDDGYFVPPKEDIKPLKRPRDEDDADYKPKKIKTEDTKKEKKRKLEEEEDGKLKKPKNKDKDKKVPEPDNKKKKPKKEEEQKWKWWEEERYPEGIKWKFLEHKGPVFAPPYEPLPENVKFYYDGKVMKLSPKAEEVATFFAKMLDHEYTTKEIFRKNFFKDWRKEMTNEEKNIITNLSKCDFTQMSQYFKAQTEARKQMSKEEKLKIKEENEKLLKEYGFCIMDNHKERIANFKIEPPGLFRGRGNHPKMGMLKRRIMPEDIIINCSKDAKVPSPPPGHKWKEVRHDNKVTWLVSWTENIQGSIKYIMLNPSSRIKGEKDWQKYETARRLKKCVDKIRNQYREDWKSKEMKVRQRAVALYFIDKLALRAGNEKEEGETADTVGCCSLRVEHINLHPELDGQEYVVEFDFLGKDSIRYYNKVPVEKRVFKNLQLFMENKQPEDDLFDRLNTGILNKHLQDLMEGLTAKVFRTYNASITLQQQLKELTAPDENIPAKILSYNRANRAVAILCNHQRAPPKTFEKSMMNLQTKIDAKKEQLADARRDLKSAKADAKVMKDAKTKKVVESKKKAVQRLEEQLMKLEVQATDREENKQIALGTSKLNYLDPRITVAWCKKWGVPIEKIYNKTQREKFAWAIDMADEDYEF
Description: as §1

[6] = target: T4, Sm (Smith antigen); test: AtheNA, Ab 12.5 ug/ml
T4 construct: Protein complex
Description: as §1

[7] = target: T5, Histones; test: AtheNA, Ab 12.5 ug/ml
T5 construct: Mixture of proteins
Description: as §1

[8] = target: T6, SSA; test: AtheNA, Ab 12.5 ug/ml
T6 construct: also called SSA (Ro)
Description: as §1

[9] = target: T7, RNP (ribonucleoprotein); test: AtheNA, Ab 12.5 ug/ml
T7 construct: Protein-RNA complex
Description: as §1

[10] = target: T8, Jo-1 (UniProt P12081 1-509); test: AtheNA, Ab 6.25 ug/ml
T8 sequence: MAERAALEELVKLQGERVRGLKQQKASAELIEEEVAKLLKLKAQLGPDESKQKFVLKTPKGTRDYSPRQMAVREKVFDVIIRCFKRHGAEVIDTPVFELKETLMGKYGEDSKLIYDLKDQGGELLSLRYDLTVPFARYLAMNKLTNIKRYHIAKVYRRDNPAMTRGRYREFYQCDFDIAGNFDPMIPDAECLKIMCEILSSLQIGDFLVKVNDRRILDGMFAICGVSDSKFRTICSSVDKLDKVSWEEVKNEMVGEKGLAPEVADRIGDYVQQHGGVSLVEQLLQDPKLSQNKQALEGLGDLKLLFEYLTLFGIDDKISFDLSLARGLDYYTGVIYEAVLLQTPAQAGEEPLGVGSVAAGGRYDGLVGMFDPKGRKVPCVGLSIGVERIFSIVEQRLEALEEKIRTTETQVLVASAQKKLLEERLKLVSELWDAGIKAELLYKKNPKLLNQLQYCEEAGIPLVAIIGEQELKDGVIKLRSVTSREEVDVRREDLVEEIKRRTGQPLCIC

[11] = target: T9, Centromere B (UniProt P07199 1-599); test: AtheNA, Ab 6.25 ug/ml
T9 construct: also called Cent B
T9 sequence: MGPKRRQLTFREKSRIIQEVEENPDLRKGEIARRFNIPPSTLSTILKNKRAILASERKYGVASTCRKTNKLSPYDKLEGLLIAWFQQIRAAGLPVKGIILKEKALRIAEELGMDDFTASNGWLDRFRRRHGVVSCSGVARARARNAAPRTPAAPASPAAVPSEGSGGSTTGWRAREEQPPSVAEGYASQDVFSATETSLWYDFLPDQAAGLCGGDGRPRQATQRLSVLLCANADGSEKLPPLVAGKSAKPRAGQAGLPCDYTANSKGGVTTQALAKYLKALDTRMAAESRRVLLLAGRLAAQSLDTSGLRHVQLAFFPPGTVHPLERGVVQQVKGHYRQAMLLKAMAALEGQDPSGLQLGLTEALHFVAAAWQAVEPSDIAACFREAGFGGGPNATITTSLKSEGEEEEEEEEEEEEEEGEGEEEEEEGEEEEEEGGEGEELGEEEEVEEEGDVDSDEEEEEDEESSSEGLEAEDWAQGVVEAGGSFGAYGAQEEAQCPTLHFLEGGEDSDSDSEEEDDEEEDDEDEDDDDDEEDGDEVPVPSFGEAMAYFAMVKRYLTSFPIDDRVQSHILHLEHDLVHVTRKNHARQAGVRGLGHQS

[12] = target: T2, SSB; test: AtheNA, Ab 6.25 ug/ml
[13] = target: T8, Jo-1; test: AtheNA, Ab 12.5 ug/ml

B1: CH241 (antibody, V domains shown)
VH: QVQLVQSGAAVKKPGASVRVSCKASGYTFTSSHIHWVRQAPGQGPEWMGMIDPSVGRPTTAGKFQGRVTMTRDRYTSTAYMDLSSLRSEDTAVYYCARSVETTGSLLYFDYWGQGTLITVSS
VL: EIVLTQSPATLSVSPGERATLSCRASQSVRSNIAWYQQKPGQAPRLLIHGASTRATGIPGRFSGSGSGPEFTLAISSVQSEDFAVYYCQQYNDWWTFGQGTKVEIK
- Kd [1]: 0.7 nM
- koff [1]: 0.00033 s⁻¹

B2: CH493 (antibody, V domains shown)
VH: QVRLLQYGGGVKRPGASMTISCVASGYNFNDYYIHWVRQAPGQGLELMGWIDPSGGRTDYAGAFGDRVSMYRDKSMNTLYMDLRSLRSGDTAMYYCVRNVGTAGSLLHYDHWGLGVMVTVSS
VL: EIVLTQSPATLSVSPGERVTLSCRASQSVRNNLAWYRQKRGQAPRLLIYGASTRATGIPARFSGSGSGTEFTLTISSMQSEDFAVYYCQQYNNWWTFGQGTKVEIK
notes: also called CH235.9; DH493
- neutralization IC50, TZM-bl pseudovirus assay [2]: 0.66 µg/mL
- EC50 (read off the curve) [3]: ~0.7 µg/mL
- AtheNA signal [4]: 22
- AtheNA signal [5]: 26
- AtheNA signal [6]: 42
- AtheNA signal [7]: 200
- AtheNA signal [8]: 54
- AtheNA signal [9]: 49

B3: CH557 (antibody, V domains shown)
VH: QVRLAQYGGGVKRLGATMTLSCVASGYTFNDYYIHWVRQAPGQGFELLGYIDPANGRPDYAGALRERLSFYRDKSMETLYMDLRSLRYDDTAMYYCVRNVGTAGSLLHYDHWGSGSPVIVSS
VL: EIVLTQSPATLSASPGERVTLTCRASRSVRNNVAWYQHKGGQSPRLLIYDASTRAAGVPARFSGSASGTEFTLAISNLESEDFTVYFCLQYNNWWTFGQGTRVDIK
notes: also called CH235.12; CH557_4A/293i
- AtheNA signal [10]: 5 relative luminescence units
- AtheNA signal [11]: 11 relative luminescence units
- AtheNA signal [12]: 5 relative luminescence units
- AtheNA signal [13]: 5 relative luminescence units
